From patent US10400249B2, “HPPD variants and methods of use” (priority 2014, dated 2019)
Numbering of substitutions follows the chain as printed. In names and notes the source's numbering stands.

B1: FLP129: PfHPPD variant E335P, G336F, K339A, A340Q (protein)
chain: MADLYENPMGLMGFEFIEFASPTPGTLEPIFEIMGFTKVATHRSKNVHLYRQGEINLILNNEPNSIASYFAAEHGPSVCGMAFRVKDSQKAYNRALELGAQPIHIDTGPMELNLPAIKGIGGAPLYLIDRFGEGSSIYDIDFVYLEGVERNPVGAGLKVIDHLTHNVYRGRMVYWANFYEKLFNFREARYFDIKGEYTGLTSKAMSAPDGMIRIPLNEESSKGAGQIEEFLMQFNGEGIQHVAFLTDDLVKTWDALKKIGMRFMTAPPDTYYEMLEGRLPDHGEPVDQLQARGILLDGSSVEGDKRLLLQIFSETLMGPVFFEFIQRKGDDGFGPFNFAQLFESIERDQVRRGVLTAD
modifications: HPPD variant - FLP129
notes: PfHPPD variant E335P, G336F, K339A, A340Q
B2: PfG336Y: reference PfHPPD mutant G336Y (protein)
chain: B1 chain with P335E, F336Y, A339K, Q340A
modifications: HPPD variant - Pf336Y
B3: PfEvo33: reference PfHPPD mutant E335P, G336W (protein)
chain: B1 chain with F336W, A339K, Q340A
modifications: HPPD variant - PfEvo33
B4: PfG336W: reference PfHPPD mutant G336W (protein)
chain: B1 chain with P335E, F336W, A339K, Q340A
modifications: HPPD variant - Pf336W
B5: FLP130: PfHPPD variant E335P, G336F, A340E (protein)
chain: B1 chain with A339K, Q340E
modifications: HPPD variant - FLP130
notes: PfHPPD variant E335P, G336F, A340E

Tests used:
T0 soybean plants = experiment: greenhouse spray test of T0 soybean plants for tolerance to mesotrione; format: in vivo; conditions: 316 grams AI per hectare; for Number of T0 soybean plants with herbicide tolerance rating 0 (completely bleached) / Number of T0 soybean plants with herbicide tolerance rating 1 (slight tolerance) / Number of T0 soybean plants with herbicide tolerance rating 2 (moderate tolerance) / Number of T0 soybean plants with herbicide tolerance rating 3 (nearly perfect tolerance): HT-triple plant expression cassette, mesotrione 3X field rate, seven days after treatment
Method: T0 soybean plants expressing an HPPD inhibitor tolerant enzyme of the present invention, along with a gene conferring tolerance to glyphosate and a gene conferring tolerance to glufosinate or having a “plant expression cassette”, which includes only an HPPD inhibitor tolerant enzyme of the present invention, were tested for tolerance to mesotrione. Prior greenhouse trials with the transgenic plants, soy transformants were routinely analyzed for the expression and presence of the transgenes using the ELISA protein detection method (see detailed description under item D and H). Only plants recovering in the selection media and having a detectable HPPD transgene protein expression were used for the herbicide tolerance analysis. A DeVries Tracker Sprayer was calibrated prior to each spraying. The chemical formulation used for mesotrione (MST) testing was Callisto® 4 SC formulation supplemented with ammonium sulfate and methylated rape seed oil (Actirob). Spray tests were conducted using 3× the field rate (equivalent to 9 fluid ounce per acre of the same herbicide formulation that containing 40% the active ingredient (AI), mesotrione), which equals 316 grams AI per hectare. Tolerance was evaluated one week after spraying. […] A tolerance rating of “0” was assigned to plants that their shoot apexes, newly emerged trifoliates and some axillary buds were completely bleached. A rating of “1” was assigned to plants having slight tolerance, i.e., the newest plant shoot tissues had some green leaves and are not bleached completely. A rating of “2” was assigned to plants showing moderate tolerance, i.e., more than 50% of the leaf area of the top three trifoliates showing no chlorosis or bleaching damage. A rating of “3” was assigned to plants showing nearly perfect tolerance, i.e., less than 10% of the leaf area showing chlorosis or very slight bleaching.

[1] = system: Pseudomonas fluorescens HPPD protein; experiment: OD assay: HPPD activity and pI50 from HPP remaining after derivatisation with DNP; format: biochemical; conditions: for Activity DeltaE/24 min μg Protein: HPPD enzyme activity of the clone; for tolerance (pI50) Cmpd. 2: inhibitor Cmpd. 2; for tolerance (pI50) DKN: inhibitor diketonitrile (DKN), negative log of molar concentration; for tolerance (pI50) MST: inhibitor mesotrione (MST); for tolerance (pI50) TBT: inhibitor tembotrione (TBT)
Outline: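 Purified Pseudomonas fluorescens HPPD, room temperature. OD assay: 50 mM Tris-HCl pH 7.8, 0.5 mM HPP, 10 mM ascorbate, catalase, 24 min, remaining HPP derivatised with DNP, read at 405 nm, inhibitor 5.0×10^−6 to 5.0×10^−4 M. HGD assay: 200 mM Tris-HCl pH 7.6, 600 μM HPP, 20 μM FeSO4, coupled HGA dioxygenase, initial rates at 318 nm, inhibitor ≤100 μM, time-course gives inhibition type; pI50 from 4-parameter fits.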

[2] = system: Pseudomonas fluorescens HPPD protein; experiment: HGD assay: HPPD activity coupled to HGA dioxygenase, pI50 and type of inhibition (time-course); format: biochemical; conditions: for tolerance (pI50) Cmpd. 1: inhibitor Cmpd. 1; for tolerance (pI50) Cmpd. 1 / tolerance (pI50) Cmpd. 2 / tolerance (pI50) Cmpd. 3 / tolerance (pI50) Cmpd. 4 / tolerance (pI50) Cmpd. 5 / tolerance (pI50) DKN / tolerance (pI50) MST / tolerance (pI50) TBT: HGD assay; for tolerance (pI50) Cmpd. 2: inhibitor Cmpd. 2; for tolerance (pI50) Cmpd. 3: inhibitor Cmpd. 3; for tolerance (pI50) Cmpd. 4: inhibitor Cmpd. 4; for tolerance (pI50) Cmpd. 5: inhibitor Cmpd. 5; for tolerance (pI50) DKN: inhibitor diketonitrile (DKN); for tolerance (pI50) MST: inhibitor mesotrione (MST); for tolerance (pI50) TBT: inhibitor tembotrione (TBT)
Method: HPPD proteins were produced and purified as described in WO2011/076882. The activity of HPPD proteins in absence or presence of HPPD inhibitors was determined using either the so called OD assay or the HGD assay.
• a) The OD assay: The HPPD activity was determined colourimetrically by measuring the amount of HPP remaining in the assay mixture at the end of the incubation period after derivatisation of HPP with 2,4-dinitrophenylhydrazine (DNP) to form an amber-brown colored 2,4-dinitrophenylhydrazone under alkaline conditions. The assay was carried out at room temperature in Greiner F-bottom 96 well microplates. The assay mixture contained 50 mM Tris-HCl pH 7.8, 0.5 mM HPP, 10 mM ascorbate, 650 units of catalase and appropriate amounts of purified HPPD enzyme in a total assay volume of 100 μl. The reaction was started by the addition of enzyme. After an incubation time of 24 minutes, the reaction was stopped by the addition of 50 μl of a solution of 0.04% DNP dissolved in 3.8 N HCl. After a further 15-minute incubation period 100 μl of a 5 N KOH solution was added to the reaction mixture and the amount of unconsumed HPP was measured photometrically at 405 nm. Enzyme activity was calculated as the difference in E405 between assays lacking enzyme (negative control) and the enzyme containing assays (ΔE405=E405(negative control)−E405). Enzyme activity (nmol substrate consumed per min) was calculated from a calibration curve generated from HPP. pI50-values (the negative log value of the concentration of inhibitor necessary to inhibit 50% of the enzyme activity in molar concentration were determined from dose-response plots of HPPD activity versus inhibitor concentration tested (5.0×10^−6, 1.0×10^−5, 2.5×10^−5, 4.0×10^−5, 7.0×10^−5, 1.0×10^−4, 2.0×10^−4 and 5.0×10^−4M) using the 4 Parameter Logistic Model or Sigmoidal Dose-Response Model of the ID Business Solutions Ltd. XLfit software suite. The result “>5.6” means that the inhibition at the lowest inhibitor concentration tested was higher than 85% and the pI50-value could therefore not be precisely calculated within in the range of concentration of inhibitor tested. The result “<2.5” means that the inhibition at the highest inhibitor concentration tested was lower than 25% and the pI50-value could therefore not be precisely calculated within in the range of concentration of inhibitor tested. “n.d.” means not determined. • b) The HGD assay: With the HGD assay HPPD activity was measured at room temperature by adding appropriate amounts of HPPD to a solution of 200 mM Tris-HCl pH 7.6, 10 mM ascorbate, 20 μM FeSO4, 650 units of catalase, 8 μg HGA dioxygenase (HGA: homogentisate) and 600 μM HPP in a total volume of 1 ml. Initial reaction rates in the absence or presence of inhibitors were determined from the increase in absorbance at 318 nm due to the formation of maleylacetoacetate (ε318=11,900 M−1 cm-1). pI50-values (the negative log value of the concentration of inhibitor necessary to inhibit 50% of the enzyme activity in molar concentration were determined from dose-response plots of HPPD activity versus inhibitor concentration tested using the 4 Parameter Logistic Model or Sigmoidal Dose-Response Model of the ID Business Solutions Ltd. XLfit software suite. Due to the UV absorption of the HPPD inhibitors tested, inhibitor concentrations >100 μM could not be tested. The result “<4” means that the inhibition at 100 μM inhibitor concentration was lower than 25% and the pI50-value could therefore not be precisely calculated within in the range of concentration of inhibitor tested. “n.d.” means not determined. The HGD assay allowed to continuously follow HPPD-catalyzed HGA formation over time was therefore used to determine the inhibition type of the HPPD inhibitors tested. […] When in the presence of an inhibitor the HPPD activity was inhibited but the inhibition was found not to […] in a time-dependent manner, the inhibitor was called reversible (abbreviation “rev”). […]

| Molecule | Activity DeltaE/24 min μg Protein [1] | tolerance (pI50) Cmpd. 2 [1] | tolerance (pI50) DKN [1] | tolerance (pI50) MST [1] | tolerance (pI50) TBT [1] | mechanism of inhibition by diketonitrile (DKN), time-course of inhibition [2] | mechanism of inhibition by mesotrione (MST), time-course of inhibition [2] | mechanism of inhibition by tembotrione (TBT), time-course of inhibition [2] | tolerance (pI50) Cmpd. 1 [2] | tolerance (pI50) Cmpd. 2 [2] | tolerance (pI50) Cmpd. 3 [2] | tolerance (pI50) Cmpd. 4 [2] | tolerance (pI50) Cmpd. 5 [2] | tolerance (pI50) DKN [2] | tolerance (pI50) MST [2] | tolerance (pI50) TBT [2] | Number of T0 soybean plants with herbicide tolerance rating 0 (completely bleached) (T0 soybean plants) | Number of T0 soybean plants with herbicide tolerance rating 1 (slight tolerance) (T0 soybean plants) | Number of T0 soybean plants with herbicide tolerance rating 2 (moderate tolerance) (T0 soybean plants) | Number of T0 soybean plants with herbicide tolerance rating 3 (nearly perfect tolerance) (T0 soybean plants) | also measured |
| --- | --- | --- | --- | --- | --- | --- | --- | --- | --- | --- | --- | --- | --- | --- | --- | --- | --- | --- | --- | --- | --- |
| CS(=O)(=O)c1ccc(C(=O)C2C(=O)CCCC2=O)c([N+](=O)[O-])c1 [mesotrione, 2-[4-(methylsulfonyl)-2-nitrobenzoyl]-1,3-cyclohexanedione, reference compound] | – | – | – | – | – | – | – | – | – | – | – | – | – | – | – | – | – | – | – | – | leaf damage of wild type soybean plants (T0 soybean plants; Callisto 4 SC formulation, 3× field rate, one week after spraying): 100% |
| B1 | 0.36 DeltaE/24 min μg Protein | 5.4 | 3.3 | 3.7 | 4.8 | fully reversible inhibitors | fully reversible inhibitors | fully reversible inhibitors | 6.1 | 5.8 | 5.9 | 6.6 | 6.1 | 4.6 | 5.0 | 6.2 | 13 | 18 | 35 | 12 | – |
| B2 | 0.66 DeltaE/24 min μg Protein | – | 5.2 | 5.5 | – | – | – | – | – | – | – | – | – | 4.9 | 5.0 | – | – | – | – | – | – |
| B3 | 0.25 DeltaE/24 min μg Protein | – | 4.3 | 5.1 | – | – | – | – | – | – | – | – | – | 4.6 | 5.5 | 6.2 | – | – | – | – | – |
| B4 | 0.40 DeltaE/24 min μg Protein | – | 5.0 | 5.3 | – | – | – | – | 6.2 | 6.8 | 6.4 | 6.7 | 6.1 | – | 5.5 | 6.1 | – | – | – | – | – |
| B5 | 0.39 DeltaE/24 min μg Protein | 5.5 | 3.2 | 3.7 | 4.8 | fully reversible inhibitors | fully reversible inhibitors | fully reversible inhibitors | 6.2 | 6.2 | 6.4 | 6.6 | 6.0 | 4.3 | 5.3 | 6.2 | 3 | 18 | 39 | 11 | – |
